PMC11065751
Where “and” joins values, the source holds several entries; their conditions need not be identical. Equal values may be shown once.

What was measured:
[1] = target: Vangl2-Long (70 kD isoform), endogenous mouse (mouse (endogenous in IMCD3)); assay: co-IP; serial IP of endogenous proteins from IMCD3 cell extracts: two successive rounds of IP with N-VGL2 pAb, then IP of the Vangl2-Long depleted lysate with a Vangl1-specific antibody
[2] = target: Vangl2-Long (70 kD isoform), endogenous mouse (mouse (endogenous in IMCD3)); assay: co-IP; endogenous proteins; SKBR7 or IMCD3 cell lysates (50 mM Hepes-NaOH pH 8, 150 mM NaCl, 10% glycerol, 2 mM EDTA, 0.5% NP-40) incubated overnight at 4 °C with N-VGL2 pAb (VANGL2-Long specific) or mAb 36E3, protein A or G beads; blots with mAb 36E3 and mAb 19D5; 62 kD and 70 kD bands quantified for the ratio

- percent of Vangl2 depleted by IP of Vangl2-Long [1]: 50%
- stoichiometry N (Vangl2 per Vangl2-Long) [2]: 3 and 4
B1: Vangl2 (canonical 62 kD isoform), endogenous mouse (natural protein)
chain: MDTESQYSGYSYKSGHSRSSRKHRDRRDRHRSKSRDGSRGDKSVTIQAPGEPLLDNESTRGDERDDNWGETTTVVTGTSEHSISHDDLTRIAKDMEDSVPLDCSRHLGVAAGAILALLSFLTPLAFLLLPPLLWREELEPCGTACEGLFISVAFKLLILLLGSWALFFRRPKASLPRVFVLRALLMVLVFLLVISYWLFYGVRILDARERSYQGVVQFAVSLVDALLFVHYLAVVLLELRQLQPQFTLKVVRSTDGASRFYNVGHLSIQRVAVWILEKYYHDFPVYNPALLNLPKSVLAKKVSGFKVYSLGEENSTNNSTGQSRAVIAAAARRRDNSHNEYYYEEAEHERRVRKRRARLVVAVEEAFTHIKRLQEEEQKNPREVMDPREAAQAIFASMARAMQKYLRTTKQQPYHTMESILQHLEFCITHDMTPKAFLERYLAAGPTIQYHKERWLAKQWTLVSEEPVTNGLKDGIVFLLKRQDFSLVVSTKKVPFFKLSEEFVDPKSHKFVMRLQSETSV
